Results taken from article PMC3922351 (2007).

What was measured:
FGFR1 (Homo sapiens) [1] = molecular target: FGFR1 (Homo sapiens) (UniProt P11362); assay: surface plasmon resonance; conditions: cited from earlier work
FGFR1 (Homo sapiens) [2] = molecular target: FGFR1 (Homo sapiens) (UniProt P11362); assay: surface plasmon resonance; conditions: cited from earlier work; remark: listed apart in the source
FGF2 (Homo sapiens) [3] = molecular target: FGF2 (Homo sapiens) (UniProt P09038); assay: SPR; conditions: cited from earlier work
Sequence of FGF2 (Homo sapiens) (P09038 143-288): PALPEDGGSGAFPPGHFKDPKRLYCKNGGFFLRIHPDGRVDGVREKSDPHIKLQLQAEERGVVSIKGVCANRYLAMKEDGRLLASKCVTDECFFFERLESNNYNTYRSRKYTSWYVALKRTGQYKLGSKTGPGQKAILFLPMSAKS

FGF2 (Homo sapiens) [4] = molecular target: FGF2 (Homo sapiens) (UniProt P09038); assay: SPR; conditions: cited from earlier work; remark: listed apart in the source
[5] = molecular target: low density lipoprotein receptor-related protein (LRP) (UniProt Q07954)
Sequence of low density lipoprotein receptor-related protein (LRP) (Q07954 20-4544): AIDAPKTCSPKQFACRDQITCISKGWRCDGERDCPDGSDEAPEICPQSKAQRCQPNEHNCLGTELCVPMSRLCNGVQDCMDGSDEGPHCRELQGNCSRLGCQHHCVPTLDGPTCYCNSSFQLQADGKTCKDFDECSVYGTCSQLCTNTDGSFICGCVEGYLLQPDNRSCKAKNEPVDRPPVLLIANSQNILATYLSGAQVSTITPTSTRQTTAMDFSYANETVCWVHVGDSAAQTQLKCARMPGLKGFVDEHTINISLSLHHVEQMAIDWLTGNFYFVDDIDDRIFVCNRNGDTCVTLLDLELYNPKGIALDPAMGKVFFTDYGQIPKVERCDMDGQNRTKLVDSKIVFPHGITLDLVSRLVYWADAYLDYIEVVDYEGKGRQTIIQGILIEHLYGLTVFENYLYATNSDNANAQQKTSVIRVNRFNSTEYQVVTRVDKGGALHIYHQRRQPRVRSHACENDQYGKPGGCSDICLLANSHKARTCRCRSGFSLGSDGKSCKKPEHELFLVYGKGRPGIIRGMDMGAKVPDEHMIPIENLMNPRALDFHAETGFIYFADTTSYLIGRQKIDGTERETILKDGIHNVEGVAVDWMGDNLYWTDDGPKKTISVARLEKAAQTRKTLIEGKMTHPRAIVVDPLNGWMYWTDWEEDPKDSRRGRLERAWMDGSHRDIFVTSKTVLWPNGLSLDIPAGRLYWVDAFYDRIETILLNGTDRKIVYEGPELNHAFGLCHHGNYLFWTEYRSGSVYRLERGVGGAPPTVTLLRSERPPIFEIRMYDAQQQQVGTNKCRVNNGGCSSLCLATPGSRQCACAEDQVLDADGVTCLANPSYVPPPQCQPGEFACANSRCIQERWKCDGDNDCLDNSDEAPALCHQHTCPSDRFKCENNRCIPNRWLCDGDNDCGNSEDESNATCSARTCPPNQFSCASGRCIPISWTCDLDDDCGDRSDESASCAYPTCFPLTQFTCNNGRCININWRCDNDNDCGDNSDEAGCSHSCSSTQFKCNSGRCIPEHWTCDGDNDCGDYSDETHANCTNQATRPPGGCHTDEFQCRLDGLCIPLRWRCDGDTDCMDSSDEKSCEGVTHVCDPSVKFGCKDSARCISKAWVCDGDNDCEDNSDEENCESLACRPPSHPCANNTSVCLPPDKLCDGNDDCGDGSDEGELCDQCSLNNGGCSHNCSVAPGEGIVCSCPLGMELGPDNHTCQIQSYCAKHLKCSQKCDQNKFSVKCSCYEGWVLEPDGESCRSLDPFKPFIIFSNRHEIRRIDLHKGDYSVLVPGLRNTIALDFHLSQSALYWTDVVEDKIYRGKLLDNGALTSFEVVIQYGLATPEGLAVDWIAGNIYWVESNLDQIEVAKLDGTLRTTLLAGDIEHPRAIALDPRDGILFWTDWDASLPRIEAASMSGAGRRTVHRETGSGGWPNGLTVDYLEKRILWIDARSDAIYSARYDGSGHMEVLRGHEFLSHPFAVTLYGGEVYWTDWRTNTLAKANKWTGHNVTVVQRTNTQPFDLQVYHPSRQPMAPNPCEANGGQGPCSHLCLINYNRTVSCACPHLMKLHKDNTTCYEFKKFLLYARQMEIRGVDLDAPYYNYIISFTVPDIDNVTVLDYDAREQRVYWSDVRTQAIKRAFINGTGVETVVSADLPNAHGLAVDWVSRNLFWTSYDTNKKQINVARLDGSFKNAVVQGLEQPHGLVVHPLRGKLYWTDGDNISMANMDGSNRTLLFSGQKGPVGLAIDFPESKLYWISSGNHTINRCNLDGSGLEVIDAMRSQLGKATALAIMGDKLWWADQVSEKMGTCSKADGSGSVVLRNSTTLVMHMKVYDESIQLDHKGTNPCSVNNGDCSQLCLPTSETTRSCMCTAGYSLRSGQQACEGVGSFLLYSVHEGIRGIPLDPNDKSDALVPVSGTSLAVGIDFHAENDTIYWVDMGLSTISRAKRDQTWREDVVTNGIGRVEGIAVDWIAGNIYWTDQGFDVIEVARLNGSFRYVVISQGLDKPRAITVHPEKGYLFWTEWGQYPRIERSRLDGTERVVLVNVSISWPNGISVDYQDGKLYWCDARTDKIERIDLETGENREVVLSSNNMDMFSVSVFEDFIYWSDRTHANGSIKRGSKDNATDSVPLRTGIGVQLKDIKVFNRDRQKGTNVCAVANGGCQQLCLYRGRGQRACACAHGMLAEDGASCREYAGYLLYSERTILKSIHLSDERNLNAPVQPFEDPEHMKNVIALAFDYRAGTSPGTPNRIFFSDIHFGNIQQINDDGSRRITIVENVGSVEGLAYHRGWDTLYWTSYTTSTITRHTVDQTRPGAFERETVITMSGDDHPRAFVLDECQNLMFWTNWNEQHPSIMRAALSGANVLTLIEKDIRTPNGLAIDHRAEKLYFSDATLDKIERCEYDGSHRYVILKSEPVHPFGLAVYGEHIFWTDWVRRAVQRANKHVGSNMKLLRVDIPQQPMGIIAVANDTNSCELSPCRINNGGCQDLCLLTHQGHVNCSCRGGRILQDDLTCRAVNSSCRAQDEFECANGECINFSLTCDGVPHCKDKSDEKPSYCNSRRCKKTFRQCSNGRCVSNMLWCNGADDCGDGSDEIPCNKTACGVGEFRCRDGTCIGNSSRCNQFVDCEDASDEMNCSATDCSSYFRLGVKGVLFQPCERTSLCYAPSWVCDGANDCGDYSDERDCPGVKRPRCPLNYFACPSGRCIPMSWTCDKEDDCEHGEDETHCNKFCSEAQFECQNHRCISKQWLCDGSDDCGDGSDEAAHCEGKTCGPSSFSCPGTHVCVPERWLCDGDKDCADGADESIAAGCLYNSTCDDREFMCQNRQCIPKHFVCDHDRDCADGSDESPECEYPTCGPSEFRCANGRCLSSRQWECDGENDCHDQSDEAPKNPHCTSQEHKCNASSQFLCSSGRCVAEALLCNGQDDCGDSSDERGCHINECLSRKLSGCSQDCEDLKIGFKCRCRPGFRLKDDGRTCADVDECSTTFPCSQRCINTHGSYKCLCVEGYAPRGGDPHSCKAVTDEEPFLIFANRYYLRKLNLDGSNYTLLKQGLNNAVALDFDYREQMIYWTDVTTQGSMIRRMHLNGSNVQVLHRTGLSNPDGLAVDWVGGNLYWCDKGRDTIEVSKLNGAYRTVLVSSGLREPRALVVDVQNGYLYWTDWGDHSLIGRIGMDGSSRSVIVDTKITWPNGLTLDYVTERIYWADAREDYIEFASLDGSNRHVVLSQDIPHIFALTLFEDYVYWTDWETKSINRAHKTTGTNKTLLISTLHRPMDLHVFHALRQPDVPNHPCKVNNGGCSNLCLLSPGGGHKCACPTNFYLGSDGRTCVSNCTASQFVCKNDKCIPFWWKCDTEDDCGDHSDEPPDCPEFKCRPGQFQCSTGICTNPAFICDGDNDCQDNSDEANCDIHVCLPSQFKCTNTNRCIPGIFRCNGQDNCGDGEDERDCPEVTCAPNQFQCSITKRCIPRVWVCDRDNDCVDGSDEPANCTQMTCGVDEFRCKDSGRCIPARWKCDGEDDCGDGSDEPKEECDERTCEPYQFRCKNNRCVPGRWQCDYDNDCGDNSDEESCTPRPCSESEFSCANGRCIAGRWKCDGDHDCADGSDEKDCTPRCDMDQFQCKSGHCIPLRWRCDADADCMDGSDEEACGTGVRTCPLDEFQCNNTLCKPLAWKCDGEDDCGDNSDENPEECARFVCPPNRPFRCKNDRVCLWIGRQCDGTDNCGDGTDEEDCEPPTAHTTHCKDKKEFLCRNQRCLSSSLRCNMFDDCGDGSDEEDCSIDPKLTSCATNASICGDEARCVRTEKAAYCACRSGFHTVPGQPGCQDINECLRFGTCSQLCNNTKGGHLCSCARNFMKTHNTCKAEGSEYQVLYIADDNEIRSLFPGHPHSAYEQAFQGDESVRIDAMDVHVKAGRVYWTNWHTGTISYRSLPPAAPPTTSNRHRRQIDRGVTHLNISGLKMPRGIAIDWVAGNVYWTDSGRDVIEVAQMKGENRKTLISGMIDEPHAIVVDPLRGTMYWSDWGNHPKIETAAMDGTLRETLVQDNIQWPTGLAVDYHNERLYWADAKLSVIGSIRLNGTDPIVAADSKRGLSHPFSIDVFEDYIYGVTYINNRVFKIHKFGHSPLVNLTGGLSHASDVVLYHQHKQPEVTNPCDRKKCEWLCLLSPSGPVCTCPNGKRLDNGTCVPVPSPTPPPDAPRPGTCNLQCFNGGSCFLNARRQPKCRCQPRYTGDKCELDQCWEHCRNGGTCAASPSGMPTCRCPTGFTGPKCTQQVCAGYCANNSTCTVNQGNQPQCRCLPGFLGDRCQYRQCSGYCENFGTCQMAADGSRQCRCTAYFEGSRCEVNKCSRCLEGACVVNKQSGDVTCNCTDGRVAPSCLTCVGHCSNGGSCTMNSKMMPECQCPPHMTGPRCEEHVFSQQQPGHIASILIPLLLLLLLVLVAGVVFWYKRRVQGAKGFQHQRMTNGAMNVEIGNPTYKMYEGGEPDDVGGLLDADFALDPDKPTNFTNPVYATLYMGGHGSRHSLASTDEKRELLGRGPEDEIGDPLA

For FGF2 (from UniProt P09038), the Kd (FGFR1 (Homo sapiens) [1]) is listed as 2.7 nM and the Kd (FGFR1 (Homo sapiens) [2]) is listed as 62 nM.

In the case of FGFR1 (from UniProt P11362), the Kd (FGF2 (Homo sapiens) [3]) is given as 2.7 nM and the Kd (FGF2 (Homo sapiens) [4]) is given as 62 nM.

B1: pro-heparanase-1 (protein)
chain: QDVVDLDFFTQEPLHLVSPSFLSVTIDANLATDPRFLILLGSPKLRTLARGLSPAYLRFGGTKTDFLIFDPKKESTFEERSYWQSQVNQDICKYGSIPPDVEEKLRLEWPYQEQLLLREHYQKKFKNSTYSRSSVDVLYTFANCSGLDLIFGLNALLRTADLQWNSSNAQLLLDYCSSKGYNISWELGNEPNSFLKKADIFINGSQLGEDFIQLHKLLRKSTFKNAKLYGPDVGQPRRKTAKMLKSFLKAGGEVIDSVTWHHYYLNGRTATKEDFLNPDVLDIFISSVQKVFQVVESTRPGKKVWLGETSSAYGGGAPLLSDTFAAGFMWLDKLGLSARMGIEVVMRQVFFGAGNYHLVDENFDPLPDYWLSLLFKKLVGTKVLMASVQGSKRRKLRVYLHCTNTDNPRYKEGDLTLYAINLHNVTKYLRLPYPFSNKQVDKYLLRPLGPHGLLSKSVQLNGLTLKMVDDQTLPPLMEKPLRPGSSLGLPAFSYSFFVIRNAKVAACI
B1 showed a Kd [5] of ~1.06 nM.

B2: pro-heparanase-1 (protein)
chain: B1 chain
modifications: complex of LRP with heparan sulphate proteoglycans (HSPG)
B2 showed a Kd [5] of ~0.05 nM.
